Our source for the Kd, stoichiometry N (GGDEF per FimV (2:2 complex)) and fold increase of KD against wild type values is paper doi:10.1101/2021.08.12.456111.

Assay [1] addresses FimV_(SoHubP), C-terminal FimV domain of S. oneidensis HubP (S. oneidensis). Nature of the assay: BLI. On the technique in general: In BLI a coated tip is dipped into the sample, and binding shifts an interference pattern.
Assay [2] shares this target. In words: interferometric scattering mass spectrometry.

A word on the Kd: it is the free concentration of one partner at which half of the binding sites on the other are occupied at equilibrium, for simple one-to-one binding. The low end stands for a tighter complex, the high end for a looser complex.

B1: MBP-GGDEF_(SoPdeB), GGDEF domain of S. oneidensis PdeB, wild type (domain or fragment)
chain: RSLAVCYLDLEQFKLINDSCGHTAGDRMLAMVARAIQSCLGPQELLARIGGDEFGLVICDRTALAVAQLLKQIIAQVSLQVLHDKNCNYKVGLSIGVAFGRAPYINAQELLKDADIACIAAKAKGTNQIHIYDD
In the case of B1, the Kd in assay [1] was found to be 0.2 µM. In addition, the stoichiometry N (GGDEF per FimV (2:2 complex)) in assay [2] turned out to be 1.

B2: SoGGDEF_(PdeB) K575S (domain or fragment)
chain: RSLAVCYLDLEQFKLINDSCGHTAGDRMLAMVARAIQSCLGPQELLARIGGDEFGLVICDRTALAVAQLLKQIIAQVSLQVLHDKNCNYKVGLSIGVAFGRAPYINAQELLKDADIACIAASAKGTNQIHIYDD
The molecule B2 registered a fold increase of KD against wild type in assay [1] of 100 fold.

B3: SoGGDEF_(PdeB) K577S (domain or fragment)
chain: RSLAVCYLDLEQFKLINDSCGHTAGDRMLAMVARAIQSCLGPQELLARIGGDEFGLVICDRTALAVAQLLKQIIAQVSLQVLHDKNCNYKVGLSIGVAFGRAPYINAQELLKDADIACIAAKASGTNQIHIYDD
With B3, the fold increase of KD against wild type in assay [1] worked out at 10 fold.
